Data published in the nanobody polyreactivity screen of Harvey et al. (2022).

Test: yeast display, Sf9 membrane polyspecificity reagent, FACS + sequencing; frameworks hold sequencing errors
Summary of the method: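 Galactose induction of a Saccharomyces cerevisiae BJ5465 synthetic nanobody display library ran 36–48 hours. The cells were then stained for 1 hour at 4 °C with 10% biotinylated, detergent-solubilized Sf9 membrane reagent, pulled down on streptavidin microbeads and FACS-sorted into low and high (top ~1%) gates on expression and reagent-binding fluorescence. Labels for polyreactivity follow the gate of origin.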

## QVHLEESWGGLVQAGGSLSISCAASGSIFRPNAMGWYRPAPGKERELVAAINKIGGRTYYADSVKGRFTISRDNAKNTVYLQMNSLKPEDTAVYYCNAGGGYHYWGQGTQVTVSS
  polyreactivity (PSR sort gate): high polyreactivity

## QVHLGESGGGLVQAGGSLRLSCAASGSIFYGYAMGWYRHAPGKERELVAAITRDGSTNYADSVKGRFTISRDNAKNTVYLQMNSLKPEDTAVYYCAADTRSRRLSLVRRDYWGQGTQVTVSS
  polyreactivity (PSR sort gate): high polyreactivity

## QVHLQESGGGLMQAGGNLRLSCAASGYISTHYDMDWYRQAPGKERELVARIDDGAITNYADSVKGRFTISRDNAKNTVYLQMNSLKPEDTEVYYCAVYSGDDYYHDYWGQGTQVTVSS
  polyreactivity (PSR sort gate): low polyreactivity

## QVHLQESGGGLVQAGGSLRLSCPASGSISRYYDMGWYRQAPGKEREFVAGISGGAITYYADSVKGRFTISRDNAKNTVYLQMNSLKPEDTAVYYCAADTGVYQYHSYWGQGTQVTVSS
  polyreactivity (PSR sort gate): low polyreactivity

## QVHLVDSAGGLVQAGGNLSLSCEASGSIFRAYAMGWYRQAQGKERELVADISRSGGSTYYAESVKGRFTISRDNAKNTVYLQRNSLKPEDTAVSYGAAVFYLFSNLYGEYDYWGQGTQVTVSS
  polyreactivity (PSR sort gate): low polyreactivity

## QVHLVDSGGGLVQAGGSLRLSSAASGRIFPFYAMGWYRKAPGKERELVAAITSSGGRTYYADSVKGRFTISRDNAKNTVYLQMNSLKPEDTAVYYCAASLVGPFIYSHLYDYWGQGTQVTVSS
  polyreactivity (PSR sort gate): low polyreactivity

## QVHLVDSGGGLVQAGGSLSLSCAYSGSIFLTNAMGWYRHAPGKERELVDAITGDGSTNYADSVKGRFTISRDNAKNTVYLKMNSLIPEDTAVYYCDKDRGWSQWVDYDYWGQGTQVTVSS
  polyreactivity (PSR sort gate): low polyreactivity

## QVHLVDSGRGLVQAGGSLRLSCAASGSTFAEYVMGRYRQAPGKERELVASIDSGGGTNYADSVKGRFTISRDNAKNTVYLQMNSLKPEDTAVYYCAASGRDIGGYDYWGHGTQVTVSS
  polyreactivity (PSR sort gate): low polyreactivity

## QVHLVDTGGGLVKAGGSLRLSSAASGSTFEYYSMGWYRQEPGKERQLVPSISSGGSTNYADSVKGRFTISRDNAKNTVYLQMNSLKPEDTAVYYCAAEFAVSFYWSWLGQDYNFWGLGTQVTVSS
  polyreactivity (PSR sort gate): high polyreactivity

## QVHLVESAGGLVQAAASLRLTCSASGNTLGSYAMGWYIQAPGKETKFVATISKRGGSTYYADSVKGRFTISRDNAKNTVYFQMNSLKPEDSAVYYCAAEDEYYGGDEYWGQGTQVTVSS
  polyreactivity (PSR sort gate): high polyreactivity

## QVHLVESAVRLVQAGGSLRLSCAAPGFTFFSNARGWYRQAHGKERELFASITNDGSTYADSVKGRFTISRDNAMNTVYLQMTSLKPEDTAVYYCAARVPQWRYSRRTRERFDFWGQGTQVTVSS
  polyreactivity (PSR sort gate): low polyreactivity

## QVHLVESGGALVQAGGSLRLSCAASGRIFGGYTMGWYRQAPGKEREFVAAITSSGGSTYYADSVKGRFTISRDNAKNTVYLQMNSLKPEDTAVYYCAVDDYYYDYDYWGQGTQVTVSS
  polyreactivity (PSR sort gate): low polyreactivity

## QVHLVESGGCLVQAGGSLRLSCAASGRIFGLYAMGWYRPAPGKESELVAAISEGGGSTNYADSVKWRFTISRDNAKNTVYLQMNILKPEDTAVYYCAATYRTGVRRYYSWGQGTQVTVSS
  polyreactivity (PSR sort gate): low polyreactivity

## QVHLVESGGCLVQAGGSLRLSCAASGSTFSRYAMVWYRQAPGKEREYVAGISWSGGNTYYADSVKGRFTISRDNAKNTVYLQMNSLKTEATAVYYCASDFLDYWGVYGWAEYEYWGQGTQGTVSS
  polyreactivity (PSR sort gate): low polyreactivity

## QVHLVESGGCLVQAGGTLRLSCAATGSIFYNYDMRWYRQAPGKEREFVAAITWSGTSTYYADSVKGRFTISRDNAKNTVYLQMNSLKPEDSAVYYCNALVRRRPGYIRYDYWGQGTQVTVSS
  polyreactivity (PSR sort gate): low polyreactivity

## QVHLVESGGGIVQAGGSLRLSCAASGFTFRRYAMGWYRQAAGKERELVATITKGGGRTYYADSVKGRFTISRDNAKNTVYLQMNSLKPEDTAVFYCNASLTYDYNYWGPGTQVTVSS
  polyreactivity (PSR sort gate): high polyreactivity

## QVHLVESGGGIVQAGGSLRLSCAASGRTFVVYAMGWYRPATGKQLELVAAIRRIDGRTYYADSVKGRFTISRDNAKNTVYLQMNCLKPEDTAVYYCAADWVGATGYLYGYWGQGNQVTVSS
  polyreactivity (PSR sort gate): low polyreactivity
